Laboratory results taken from patent US20030175830, “Reagents and methods for the screening of compounds useful in the treatment of neurological diseases” (Case Western Reserve University, published 2003).

Target: T1, Pet-1 (Rattus norvegicus, UniProt O70132 SEQ:1-340)
T1 sequence: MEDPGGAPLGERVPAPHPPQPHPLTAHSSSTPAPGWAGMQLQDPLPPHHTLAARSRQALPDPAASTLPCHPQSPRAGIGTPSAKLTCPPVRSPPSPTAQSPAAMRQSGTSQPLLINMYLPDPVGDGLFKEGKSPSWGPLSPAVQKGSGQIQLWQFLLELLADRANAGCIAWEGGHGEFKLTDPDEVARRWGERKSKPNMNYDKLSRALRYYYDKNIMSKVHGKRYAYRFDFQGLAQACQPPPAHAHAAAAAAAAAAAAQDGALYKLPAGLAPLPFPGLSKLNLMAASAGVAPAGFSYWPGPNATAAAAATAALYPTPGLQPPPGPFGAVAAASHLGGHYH
Assay: competition; molar excess unlabeled PEA3 eliminated complexes
Conditions: tags: bacterially expressed; label: 32P

B1: PEA3 site oligonucleotide (dsDNA)
DNA 1: GATCCAGGAAGTGAC
DNA 2: GTCACTTCCTGGATC
B1: binds.
